Test [1] addresses EphA4 on neurons of embryonic day 6 chicken nasal retinal explants (chicken) (UniProt Q07496). The experiment in a line: cell-based or functional assay.
The target in test [2] is mouse EphA4 ectodomain fused to Fc (mouse) (UniProt Q03137). The experiment in a line: competition ELISA: ephrin-A5 AP binding to immobilized EphA4 Fc. (In general: An ELISA detects its analyte on a solid surface through an enzyme-linked reagent.)

pIC50: −log10 of the molar value.

Usually pIC50 stands for −log10 of the IC50, conventionally taken in molar units.

Chain of EphA4 on neurons of embryonic day 6 chicken nasal retinal explants (chicken) (Q07496 20-986): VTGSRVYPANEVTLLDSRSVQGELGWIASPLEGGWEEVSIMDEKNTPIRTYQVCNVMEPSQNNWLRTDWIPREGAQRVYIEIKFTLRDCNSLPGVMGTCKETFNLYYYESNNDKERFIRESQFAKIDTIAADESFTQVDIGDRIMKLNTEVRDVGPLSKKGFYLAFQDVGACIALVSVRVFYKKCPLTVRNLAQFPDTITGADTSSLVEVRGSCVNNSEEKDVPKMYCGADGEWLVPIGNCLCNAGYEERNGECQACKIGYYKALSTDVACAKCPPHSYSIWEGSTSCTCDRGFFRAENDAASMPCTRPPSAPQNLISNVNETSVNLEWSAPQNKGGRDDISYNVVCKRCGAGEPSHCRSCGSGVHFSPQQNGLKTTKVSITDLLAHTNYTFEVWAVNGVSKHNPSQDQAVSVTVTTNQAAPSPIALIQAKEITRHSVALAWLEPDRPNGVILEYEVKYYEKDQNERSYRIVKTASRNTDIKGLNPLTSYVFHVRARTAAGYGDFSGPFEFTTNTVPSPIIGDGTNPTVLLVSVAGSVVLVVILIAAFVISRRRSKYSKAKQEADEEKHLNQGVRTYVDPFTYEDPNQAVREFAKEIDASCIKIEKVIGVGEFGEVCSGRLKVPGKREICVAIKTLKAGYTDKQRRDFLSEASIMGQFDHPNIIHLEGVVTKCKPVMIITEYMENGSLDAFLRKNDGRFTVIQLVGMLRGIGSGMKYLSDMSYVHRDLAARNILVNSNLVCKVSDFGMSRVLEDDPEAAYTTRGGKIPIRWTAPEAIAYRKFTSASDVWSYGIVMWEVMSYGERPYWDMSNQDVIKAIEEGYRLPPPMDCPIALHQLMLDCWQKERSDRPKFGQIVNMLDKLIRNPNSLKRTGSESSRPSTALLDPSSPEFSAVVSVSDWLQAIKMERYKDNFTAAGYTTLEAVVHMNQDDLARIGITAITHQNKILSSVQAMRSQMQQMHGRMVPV
Chain of ephrin-A5 Fc (Fc fusion) (P52803 21-203): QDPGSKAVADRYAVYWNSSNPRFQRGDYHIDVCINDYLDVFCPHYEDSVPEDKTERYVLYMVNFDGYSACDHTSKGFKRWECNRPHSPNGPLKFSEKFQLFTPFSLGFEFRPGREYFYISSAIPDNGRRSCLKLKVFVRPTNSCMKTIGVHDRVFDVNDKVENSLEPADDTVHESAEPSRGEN
Chain of mouse EphA4 ectodomain fused to Fc (mouse) (Q03137 20-547): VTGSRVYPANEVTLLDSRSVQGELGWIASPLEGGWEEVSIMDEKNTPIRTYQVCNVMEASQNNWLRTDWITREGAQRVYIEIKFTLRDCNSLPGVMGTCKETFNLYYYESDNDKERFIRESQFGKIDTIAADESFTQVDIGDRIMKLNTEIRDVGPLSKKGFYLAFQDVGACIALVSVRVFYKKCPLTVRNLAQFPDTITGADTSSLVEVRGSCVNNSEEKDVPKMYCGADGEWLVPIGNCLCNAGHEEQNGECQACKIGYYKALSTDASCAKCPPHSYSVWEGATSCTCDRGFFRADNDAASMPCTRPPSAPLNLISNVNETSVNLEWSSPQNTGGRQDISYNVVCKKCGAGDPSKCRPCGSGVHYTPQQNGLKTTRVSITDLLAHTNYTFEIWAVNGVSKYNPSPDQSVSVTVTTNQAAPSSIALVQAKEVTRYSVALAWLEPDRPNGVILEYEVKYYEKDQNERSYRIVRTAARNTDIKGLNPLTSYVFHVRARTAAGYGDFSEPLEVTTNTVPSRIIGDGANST

With ephrin-A5 Fc (Fc fusion), in test [1], the percent collapsed growth cones, chicken nasal retinal explants (experiment with APY-d3.am) amounted to 70% and the percent collapsed growth cones, chicken nasal retinal explants (experiment with APY-βAla8.am) is 65%.

On to βAla1-PY-Lys7-βAla8.am (peptide), for which the pIC50 in test [2] is 7.15.

(Values after patent publication US20190038704A1.)
